Assay results: patent publication US20260132182A1 (published 2026)
Starred links: 1 amine or outer side, 2 acyl side, 3 side chain; linkers in the order of their positions; H or OH if unused. Non-standard residues stand in square brackets, D forms with d. Groups on a side chain read outwards from the residue. *: point of attachment. Butyryl(4-SO2NHCO(CH2)16Tz) = O=C(CCCCCCCCCCCCCCCCc1nnn[nH]1)NS(=O)(=O)CCCC(=O)*; Decanoyl(10-(4-HOOC-PhO)) = O=C(O)c1ccc(OCCCCCCCCCC(=O)*)cc1; C20 diacid = O=C(O)CCCCCCCCCCCCCCCCCCC(=O)*; C18 diacid = O=C(O)CCCCCCCCCCCCCCCCC(=O)*; C16 diacid = O=C(O)CCCCCCCCCCCCCCC(=O)*; γGlu = O=C(O)[C@H](CCC(=O)[*:2])N[*:1]; Trx = NC[C@H]1CC[C@H](C(=O)O)CC1; AEEA = NCCOCCOCC(=O)O; Aib = CC(C)(N)C(=O)O

Assays:
[1] = target: T1, human amylin-3 (a) receptor (human, UniProt P30988 25-474; O60896 24-148); assay: cell-based or functional assay
T1 sequence (looked up) 1: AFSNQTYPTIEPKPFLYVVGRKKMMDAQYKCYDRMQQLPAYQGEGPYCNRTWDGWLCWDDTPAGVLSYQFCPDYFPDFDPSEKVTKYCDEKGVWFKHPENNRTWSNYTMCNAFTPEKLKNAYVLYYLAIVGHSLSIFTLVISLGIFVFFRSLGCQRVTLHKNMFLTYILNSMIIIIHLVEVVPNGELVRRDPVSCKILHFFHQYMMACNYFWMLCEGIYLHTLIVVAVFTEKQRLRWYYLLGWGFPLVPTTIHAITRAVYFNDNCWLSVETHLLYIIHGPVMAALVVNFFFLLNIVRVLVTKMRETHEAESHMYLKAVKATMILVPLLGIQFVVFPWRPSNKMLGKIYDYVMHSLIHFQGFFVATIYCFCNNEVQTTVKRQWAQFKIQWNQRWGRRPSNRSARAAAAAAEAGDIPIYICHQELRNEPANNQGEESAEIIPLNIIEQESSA
T1 sequence (looked up) 2: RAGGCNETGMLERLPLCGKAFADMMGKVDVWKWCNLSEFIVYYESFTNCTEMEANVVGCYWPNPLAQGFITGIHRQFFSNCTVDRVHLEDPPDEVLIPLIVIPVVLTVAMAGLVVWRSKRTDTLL

human GLP-1 receptor = human GLP-1 receptor (human, UniProt P43220 24-463); assay: cell-based or functional assay

B1: Compound 0084 (peptide)
peptide: H[Aib]EGTFTSDVSSYLEGQAAREFIAWLVRGRGQEPK([AEEA-AEEA-γGlu-C18 diacid])GQAPEASELSTAALGRLSAELHELATLPRTETGSGSP-NH2
[1]
  Human AmyR3 potency [EC50 (pM)]: 14 pM
Human GLP-1 receptor
  Human GLP-1R potency [EC50 (pM)]: 2.5 pM

B2: Compound 0010 (peptide)
peptide: H[Aib]EGTFTSDVSSYLEGQAAREFIAWLVRGRGEGEGEK([AEEA-AEEA-γGlu-C18 diacid])EASELSTAALGRLSAELHELATLPRTETGSGSP-NH2
[1]
  Human AmyR3 potency [EC50 (pM)]: 37 pM
Human GLP-1 receptor
  Human GLP-1R potency [EC50 (pM)]: 5.4 pM

B3: Compound 0102 (peptide)
peptide: H[Aib]EGTFTSDVSSYLEEQAAREFIAWLVRGRK(Butyryl(4-SO2NHCO(CH2)16Tz))ELSTAALGRLSAELHELATLPRTETGSGSP-NH2
[1]
  Human AmyR3 potency [EC50 (pM)]: 9.8 pM
Human GLP-1 receptor
  Human GLP-1R potency [EC50 (pM)]: 14.7 pM

B4: Compound 0093 (peptide)
peptide: H[Aib]EGTFTSDVSSYLEGQAAK([AEEA-AEEA-γGlu-C18 diacid])EFIAWLVRGRGGGGGGGGGGGGGGGGGEASELSTAALGRLSAELHELATLPRTETGSGSP-NH2
[1]
  Human AmyR3 potency [EC50 (pM)]: 8.6 pM
Human GLP-1 receptor
  Human GLP-1R potency [EC50 (pM)]: 7.5 pM

B5: Compound 0085 (peptide)
peptide: H[Aib]EGTFTSDVSSYLEGQAAREFIAWLVRGRGQEPGQAPK([AEEA-AEEA-γGlu-C18 diacid])EASELSTAALGRLSAELHELATLPRTETGSGSP-NH2
[1]
  Human AmyR3 potency [EC50 (pM)]: 55.8 pM
Human GLP-1 receptor
  Human GLP-1R potency [EC50 (pM)]: 2.2 pM

B6: Compound 0087 (peptide)
peptide: HGEGTFTSDVSSYLEEQAARK([AEEA-AEEA-γGlu-C16 diacid])FIEWLVRGK([AEEA-AEEA-γGlu-C16 diacid])GEGGEASELSTAALGRLSAELHELATLPRTETGSGSP-NH2
[1]
  Human AmyR3 potency [EC50 (pM)]: 97.9 pM
Human GLP-1 receptor
  Human GLP-1R potency [EC50 (pM)]: 23.8 pM

B7: Compound 0075 (peptide)
peptide: H[Aib]EGTFTSDVSSYLEGQAAK([AEEA-AEEA-γGlu-C16 diacid])EFIAWLVRGK([AEEA-AEEA-γGlu-C16 diacid])GGGEASELSTAALGRLSAELHELATLPRTETGSGSP-NH2
[1]
  Human AmyR3 potency [EC50 (pM)]: 43.9 pM
Human GLP-1 receptor
  Human GLP-1R potency [EC50 (pM)]: 84.5 pM

B8: Compound 0077 (peptide)
peptide: H[Aib]EGTFTSDVSSYLEEQAARK([AEEA-AEEA-γGlu-C16 diacid])FIAWLVK([AEEA-AEEA-γGlu-C16 diacid])GRGGGEASELSTAALGRLSAELHELATLPRTETGSGSP-NH2
[1]
  Human AmyR3 potency [EC50 (pM)]: 25.7 pM
Human GLP-1 receptor
  Human GLP-1R potency [EC50 (pM)]: 2.1 pM

B9: Compound 0090 (peptide)
peptide: HGEGTFTSDVSSYLEEQAARK([AEEA-AEEA-γGlu-C18 diacid])FIEWLVRGK([AEEA-AEEA-γGlu-C18 diacid])GEGGEASELSTAALGRLSAELHELATLPRTETGSGSP-NH2
[1]
  Human AmyR3 potency [EC50 (pM)]: 70.9 pM
Human GLP-1 receptor
  Human GLP-1R potency [EC50 (pM)]: 32.6 pM

B10: Compound 0089 (peptide)
peptide: H[Aib]EGTFTSDVSSYLEEQAARK([AEEA-AEEA-γGlu-C18 diacid])FIEWLVRGK([AEEA-AEEA-γGlu-C18 diacid])GEGGEASELSTAALGRLSAELHELATLPRTETGSGSP-NH2
[1]
  Human AmyR3 potency [EC50 (pM)]: 65.5 pM
Human GLP-1 receptor
  Human GLP-1R potency [EC50 (pM)]: 5.7 pM

B11: Compound 0094 (peptide)
peptide: H[Aib]EGTFTSDVSSYLEGQAAK([AEEA-AEEA-γGlu-C20 diacid])EFIAWLVRGRGGGGGGGGGEASELSTAALGRLSAELHELATLPRTETGSGSP-NH2
[1]
  Human AmyR3 potency [EC50 (pM)]: 11.3 pM
Human GLP-1 receptor
  Human GLP-1R potency [EC50 (pM)]: 7.5 pM

B12: Compound 0074 (peptide)
peptide: H[Aib]EGTFTSDVSSYLEEQAARK([AEEA-AEEA-γGlu-C16 diacid])FIAWLVRGRGGK([AEEA-AEEA-γGlu-C16 diacid])EASELSTAALGRLSAELHELATLPRTETGSGSP-NH2
[1]
  Human AmyR3 potency [EC50 (pM)]: 60.9 pM
Human GLP-1 receptor
  Human GLP-1R potency [EC50 (pM)]: 0.8 pM

B13: Compound 0105 (peptide)
peptide: H[Aib]EGTFTSDVSSYLEEQAARK([AEEA-AEEA-γGlu-C16 diacid])FIEWLVRGK([AEEA-AEEA-γGlu-C16 diacid])GEGQEPGGASELSTAALGRLSAELHELATLPRTETGSGSP-NH2
[1]
  Human AmyR3 potency [EC50 (pM)]: 30.8 pM
Human GLP-1 receptor
  Human GLP-1R potency [EC50 (pM)]: 1.1 pM

B14: Compound 0103 (peptide)
peptide: H[Aib]EGTFTSDVSSYLEEQAAREFIAWLVRGRK(Butyryl(4-SO2NHCO(CH2)16Tz))EASELSTAALGRLSAELHELATLPRTETGSGSP-NH2
[1]
  Human AmyR3 potency [EC50 (pM)]: 11.6 pM
Human GLP-1 receptor
  Human GLP-1R potency [EC50 (pM)]: 28.1 pM

B15: Compound 0109 (peptide)
peptide: H[Aib]EGTFTSDVSSYLEEQAARK([AEEA-AEEA-γGlu-C18 diacid])FIAWLVRGK([AEEA-AEEA-γGlu-C18 diacid])GGGGGGGGGEASELSTAALGRLSAELHELATLPRTETGSGSP-NH2
[1]
  Human AmyR3 potency [EC50 (pM)]: 19.1 pM
Human GLP-1 receptor
  Human GLP-1R potency [EC50 (pM)]: 3.2 pM

B16: Compound 0019 (peptide)
peptide: H[Aib]EGTFTSDVSSYLEGQAAK([AEEA-AEEA-γGlu-C18 diacid])EFIAWLVRGRGGQEPGQEPEASELSTAALGRLSAELHELATLPRTETGSGSP-NH2
[1]
  Human AmyR3 potency [EC50 (pM)]: 26.5 pM
Human GLP-1 receptor
  Human GLP-1R potency [EC50 (pM)]: 13.7 pM

B17: Compound 0099 (peptide)
peptide: HWEGTFTSDVSSYLEEQAARK([AEEA-AEEA-γGlu-Decanoyl(10-(4-HOOC-PhO))])FIEWLVRGK([AEEA-AEEA-γGlu-Decanoyl(10-(4-HOOC-PhO))])GEGEASELSTAALGRLSAELHELATLPRTETGSGSP-NH2
[1]
  Human AmyR3 potency [EC50 (pM)]: 44.9 pM
Human GLP-1 receptor
  Human GLP-1R potency [EC50 (pM)]: 9.6 pM

B18: Compound 0098 (peptide)
peptide: HGEGTFTSDVSSYLEEQAARKFIEWLVRGKGEGGGGGGGGGEASELSTAALGRLSAELHELATLPRTETGSGSP
modifications: Lys21 and Lys30 each (10-(4-carboxyphenoxy)decanoyl-gGlu-Ado-Ado); C-terminal amide
[1]
  Human AmyR3 potency [EC50 (pM)]: 15.6 pM
Human GLP-1 receptor
  Human GLP-1R potency [EC50 (pM)]: 7.9 pM

B19: Compound 0101 (peptide)
peptide: HWEGTFTSDVSSYLEEQAARKFIEWLVRGKGEGGGGGGGGGEASELSTAALGRLSAELHELATLPRTETGSGSP
modifications: Lys21 and Lys30 each (10-(4-carboxyphenoxy)decanoyl-gGlu-Ado-Ado); C-terminal amide
[1]
  Human AmyR3 potency [EC50 (pM)]: 10.2 pM
Human GLP-1 receptor
  Human GLP-1R potency [EC50 (pM)]: 7.1 pM

B20: Compound 0095 (peptide)
peptide: H[Aib]EGTFTSDVSSYLEGQAAK([AEEA-AEEA-γGlu-Trx-C20 diacid])EFIAWLVRGRGGGGGGGGGEASELSTAALGRLSAELHELATLPRTETGSGSP-NH2
[1]
  Human AmyR3 potency [EC50 (pM)]: 6.6 pM
Human GLP-1 receptor
  Human GLP-1R potency [EC50 (pM)]: 7.4 pM

B21: Compound 0092 (peptide)
peptide: H[Aib]EGTFTSDVSSYLEGQAAK([AEEA-AEEA-γGlu-C18 diacid])EFIAWLVRGRGGGGGGGGGGGGGEASELSTAALGRLSAELHELATLPRTETGSGSP-NH2
[1]
  Human AmyR3 potency [EC50 (pM)]: 10.9 pM
Human GLP-1 receptor
  Human GLP-1R potency [EC50 (pM)]: 18.5 pM

B22: Compound 0076 (peptide)
peptide: H[Aib]EGTFTSDVSSYLEEQAARK([AEEA-AEEA-γGlu-C16 diacid])FIAWLVRGK([AEEA-AEEA-γGlu-C16 diacid])GGGEASELSTAALGRLSAELHELATLPRTETGSGSP-NH2
[1]
  Human AmyR3 potency [EC50 (pM)]: 46.4 pM
Human GLP-1 receptor
  Human GLP-1R potency [EC50 (pM)]: 1.7 pM

B23: Compound 0086 (peptide)
peptide: H[Aib]EGTFTSDVSSYLEEQAARK([AEEA-AEEA-γGlu-C16 diacid])FIEWLVRGK([AEEA-AEEA-γGlu-C16 diacid])GEGGEASELSTAALGRLSAELHELATLPRTETGSGSP-NH2
[1]
  Human AmyR3 potency [EC50 (pM)]: 78.3 pM
Human GLP-1 receptor
  Human GLP-1R potency [EC50 (pM)]: 3.9 pM

B24: Compound 0083 (peptide)
peptide: H[Aib]EGTFTSDVSSYLEGQAAREFIAWLVRGRK([AEEA-AEEA-γGlu-C18 diacid])GQEPGQAPEASELSTAALGRLSAELHELATLPRTETGSGSP-NH2
[1]
  Human AmyR3 potency [EC50 (pM)]: 46.2 pM
Human GLP-1 receptor
  Human GLP-1R potency [EC50 (pM)]: 5.4 pM

B25: Compound 0097 (peptide)
peptide: HGEGTFTSDVSSYLEEQAARK([AEEA-AEEA-γGlu-Decanoyl(10-(4-HOOC-PhO))])FIEWLVRGK([AEEA-AEEA-γGlu-Decanoyl(10-(4-HOOC-PhO))])GEGGGGGEASELSTAALGRLSAELHELATLPRTETGSGSP-NH2
[1]
  Human AmyR3 potency [EC50 (pM)]: 93.1 pM
Human GLP-1 receptor
  Human GLP-1R potency [EC50 (pM)]: 10 pM

B26: Compound 0100 (peptide)
peptide: HWEGTFTSDVSSYLEEQAARK([AEEA-AEEA-γGlu-Decanoyl(10-(4-HOOC-PhO))])FIEWLVRGK([AEEA-AEEA-γGlu-Decanoyl(10-(4-HOOC-PhO))])GEGGGGGEASELSTAALGRLSAELHELATLPRTETGSGSP-NH2
[1]
  Human AmyR3 potency [EC50 (pM)]: 30.4 pM
Human GLP-1 receptor
  Human GLP-1R potency [EC50 (pM)]: 6.8 pM
